Consider one molecule from patent US20070082380A1 (ARMAGEN TECHNOLOGIES, published 2007).

The assay concerns the target T1, human insulin receptor extracellular domain (HIR ECD) (human, UniProt P06213 28-956, limits assumed).
T1 construct: extracellular domain
Description: competitive ligand binding assay, displacement of [125I] murine HIRMAb from plated HIR ECD, Scatchard analysis. As for the experimental part: CHO cells permanently transfected with the HIR ECD were grown in serum free media (SFM), and the HIR ECD was purified with a wheat germ agglutinin affinity column.
(Loss of bound radioactivity is the signal in a displacement assay; it reports binding, not function.)

B1: chimeric HIRMAb (chimeric monoclonal antibody to the human insulin receptor) (antibody, human IgG1, kappa)
heavy: not shown
light: DIQMTQSPSSLSASLGERVSLTCRASQDIGGNLYWLQQGPDGTIKRLIYATSSLDSGVPKRFSGSRSGSDYSLTISSLESEDFVDYYCLQYSSSPWTFGGATKMEIKRTVAAPSVFIFPPSDEQLKSGTASVVCLLNNFYPREAKVQWKVDNALQSGNSQESVTEQDSKDSTYSLSSTLTLSKADYEKHKVYACEVTHQGLSSPVTKSFNRGEC
notes: chimeric human IgG1/kappa
One may read the Ki as a dissociation constant, usually derived from enzyme kinetics or from competition with a known ligand. Read a low Ki as higher affinity. B1: the Ki came to 0.63 nM.
